Source: patent publication US12692294B2, “Engineered NRG-1 variants with improved selectivity toward ErbB4 but not against ErbB3” (Amgen Inc., priority 2021, dated 2026)
Residue numbers refer to the chain shown, from its start.

B1: huNRG1(S177-F229) 6xHis: 6xHis-tagged NRG1 fragment S177-F229 without variant mutations (protein)
chain: SHLVKCAEKEKTFCVNGGECFMVKDLSNPSRYLCKCPNEFTGDRCQNYVMASFGGGGEGGGGAGGGGHHHHHH
modifications: 6xHis tag; huNRG1(S177-F229) 6xHis
notes: 6xHis-tagged NRG1 fragment S177-F229 without variant mutations
B2: :huFcSEFL2(desK)vl31(+):G4SG4:huNRG1(S177-F229)(NRGE1C): N-terminal Fc fusion of NRG1 variant SEQ ID NO:117 (protein)
chain: DKTHTCPPCPAPELLGGPSVFLFPPKPKDTLMISRTPEVTCVVVDVSHEDPEVKFNWYVDGVEVHNAKTKPCEEQYGSTYRCVSVLTVLHQDWLNGKEYKCKVSNKALPAPIEKTISKAKGQPREPQVYTLPPSREKMTKNQVSLTCLVKGFYPSDIAVEWESNGQPENNYKTTPPVLKSDGSFFLYSKLTVDKSRWQQGNVFSCSVMHEALHNHYTQKSLSLSPGGGGGSGGGGSHLVKCGEKHKSFCVNGGECFMIEGPSNPSRYLCKCPNEFTGDRCQEDFMASFDKTHTCPPCPAPELLGGPSVFLFPPKPKDTLMISRTPEVTCVVVDVSHEDPEVKFNWYVDGVEVHNAKTKPCEEQYGSTYRCVSVLTVLHQDWLNGKEYKCKVSNKALPAPIEKTISKAKGQPREPQVYTLPPSREEMTENQVSLTCLVEGFYPSDIAVEWESNGQPENNYETTPPVLDSDGSFFLYSDLTVDKSRWQQGNVFSCSVMHEALHNHYTQKSLSLSPGK
modifications: huFcSEFL2(desK)v131(+)G4SG4huNRG1(S177-F229) (NRGE1C)
B3: :huFcSEFL2(desK)vl31(+):G4SG4:huNRG1(S177-F229)(NRGE1D): N-terminal Fc fusion of NRG1 variant SEQ ID NO:126 (protein)
chain: B2 chain with K244S, F256Y, I258V, P261S, N263I
modifications: huFcSEFL2(desK)v131(+)G4SG4huNRG1(S177-F229) (NRGE1D)
B4: huNRG1(S177-F229)(NRGE1C) (E47S_D48A_F49L_M50T) 6xHis: 6xHis-tagged NRG1 variant SEQ ID NO:122; ErbB4 selective agonist without Fc of Example 3 (protein)
chain: SHLVKCGEKHKSFCVNGGECFMIEGPSNPSRYLCKCPNEFTGDRCQSALTASFGGGGEGGGGAGGGGHHHHHH
modifications: 6xHis tag; huNRG1(S177-F229)(NRGE1C) (E47S_D48A_F49L_M50T) 6xHis
B5: huNRG1(S177-F229)(NRGE1D) (E47V_D48T_F49R_M50L) 6xHis: 6xHis-tagged NRG1 variant SEQ ID NO:130 (protein)
chain: B4 chain with K9S, F21Y, I23V, P26S, N28I, S47V, A48T, L49R, T50L
modifications: 6xHis tag; huNRG1(S177-F229)(NRGE1D) (E47V_D48T_F49R_M50L) 6xHis
B6: huNRG1(S177-F229)(NRGE1D) (E47S_D48S_F49E_M50L) 6xHis: 6xHis-tagged NRG1 variant SEQ ID NO:128 (protein)
chain: B4 chain with K9S, F21Y, I23V, P26S, N28I, A48S, L49E, T50L
modifications: 6xHis tag; huNRG1(S177-F229)(NRGE1D) (E47S_D48S_F49E_M50L) 6xHis
B7: huNRG1(S177-F229)(NRGE1D) 6xHis: 6xHis-tagged NRG1 variant SEQ ID NO:126 (protein)
chain: B4 chain with K9S, F21Y, I23V, P26S, N28I, S47E, A48D, L49F, T50M
modifications: 6xHis tag; huNRG1(S177-F229)(NRGE1D) 6xHis
B8: huNRG1(S177-F229)(NRGE1D) (E47T_D48S_F49L_M50L) 6xHis: 6xHis-tagged NRG1 variant SEQ ID NO:129 (protein)
chain: B4 chain with K9S, F21Y, I23V, P26S, N28I, S47T, A48S, T50L
modifications: 6xHis tag; huNRG1(S177-F229)(NRGE1D) (E47T_D48S_F49L_M50L) 6xHis
B9: huNRG1(S177-F229)(NRGE1D) (E47K_D48L_F49D_M50I) 6xHis: 6xHis-tagged NRG1 variant SEQ ID NO:127 (protein)
chain: B4 chain with K9S, F21Y, I23V, P26S, N28I, S47K, A48L, L49D, T50I
modifications: 6xHis tag; huNRG1(S177-F229)(NRGE1D) (E47K_D48L_F49D_M50I) 6xHis
B10: huNRG1(S177-F229)(NRGE1C) (E47S_D48T_F49R_M50V) 6xHis: 6xHis-tagged NRG1 variant SEQ ID NO:123 (protein)
chain: B4 chain with A48T, L49R, T50V
modifications: 6xHis tag; huNRG1(S177-F229)(NRGE1C) (E47S_D48T_F49R_M50V) 6xHis

Legend:
ErbB4 = target: T1, ErbB4 (Rattus norvegicus, UniProt Q62956); experiment: In vitro phosphorylation of Akt in neonatal rat cardiomyocytes; type: cell-based; details: for EC50: Akt (Serine 473) phosphorylation, neonatal rat cardiomyocytes, 15 minutes treatment, read-out: Cardiomyocyte (CM) (ErbB4) Avg EC50; for Selectivity SC/CM: ratio of EC50s Schwann cells/cardiomyocytes; for CM % Agonism AVG: top value of the Akt phosphorylation data points in cardiomyocytes, wild-type control 100
T1 construct: forming the ErbB2/ErbB4 complex in cardiomyocytes and the ErbB2/ErbB3 complex in Schwann cells; endogenous in cells; host or cells: primary neonatal rat cardiomyocytes (Sprague Dawley pups, 0 to 4 days old)
Method: (§1) In Vitro Phosphorylation of Akt in Neonatal Rat Cardiomyocytes and Rat Schwann Cells by Neuregulin Variants
(§2) Specificity of neuregulin variants towards cardiomyocytes (ErbB4) versus Schwann cells (ErbB3) was tested by measuring Akt activity generated by formation of the ErbB2/ErbB4 and ErbB2/ErbB3 complexes. Upon activation by neuregulin, the ErbB4 and ErbB3 receptors dimerize preferentially with the ErbB2 co-receptor, forming the ErbB2/ErbB4 complex in cardiomyocytes and the ErbB2/ErbB3 complex in Schwann cells, both of which signal through the Akt pathway. Neonatal rat cardiomyocytes were isolated from hearts of Sprague Dawley rat pups at 0 to 4 days old according to manufacturer's protocol using the Neomyt kit and plated on Surecoat plates in NS media containing serum (all from Cellultron Life Technologies, Baltimore, MD). Rat Schwann cells were plated in Poly-D-Lysine coated plates with Dulbecco's modified Eagle's media (DMEM) supplemented with fetal bovine serum (Thermo Fisher) and forskolin (Millipore Sigma).
(§3) After a 24-hour incubation in a humidified incubator maintained at 37° C. and 5% CO2, cardiomyocytes and Schwann cells were washed with serum free media and incubated an additional 16 hours in DMEM supplemented with bovine serum albumin (Sigma). Both cell lines were then treated with titrations of the neuregulin variant molecules for 15 minutes, upon which cells were lysed in lysis buffer (Meso Scale Discovery (MSD)). For detection of Akt phosphorylation, lysates were added to the Multi-Spot 96-Well 4-Spot Phospho (Serine 473)/Total Akt plates (MSD), incubated according to the manufacturer's protocol and read in the SECTOR Imager 6000 (MSD). For both cell assays, the percent phosphorylation of Akt was calculated by multiplying the phospho Akt signal by 2, then dividing by the phospho Akt signal added to the total Akt signal and then multiplying by 100. The phosphorylation of Akt data points were fitted using a log (agonist) versus response, variable slope (4 parameters) analysis in GraphPad Prism to generate EC50 curves. The CM % agonism reflect the top value of the data points.

ErbB3 = target: T2, ErbB3 (Rattus norvegicus, UniProt Q62799); experiment: In vitro phosphorylation of Akt in rat Schwann cells; type: cell-based; details: Akt (Serine 473) phosphorylation, 15 minutes treatment; for EC50: read-out: Schwann cells (SC) (ErbB3) Avg EC50
T2 construct: forming the ErbB2/ErbB4 complex in cardiomyocytes and the ErbB2/ErbB3 complex in Schwann cells; endogenous in cells; host or cells: rat Schwann cells
Method: as §1, §2, §3

T1 sequence (Q62956 26-1308): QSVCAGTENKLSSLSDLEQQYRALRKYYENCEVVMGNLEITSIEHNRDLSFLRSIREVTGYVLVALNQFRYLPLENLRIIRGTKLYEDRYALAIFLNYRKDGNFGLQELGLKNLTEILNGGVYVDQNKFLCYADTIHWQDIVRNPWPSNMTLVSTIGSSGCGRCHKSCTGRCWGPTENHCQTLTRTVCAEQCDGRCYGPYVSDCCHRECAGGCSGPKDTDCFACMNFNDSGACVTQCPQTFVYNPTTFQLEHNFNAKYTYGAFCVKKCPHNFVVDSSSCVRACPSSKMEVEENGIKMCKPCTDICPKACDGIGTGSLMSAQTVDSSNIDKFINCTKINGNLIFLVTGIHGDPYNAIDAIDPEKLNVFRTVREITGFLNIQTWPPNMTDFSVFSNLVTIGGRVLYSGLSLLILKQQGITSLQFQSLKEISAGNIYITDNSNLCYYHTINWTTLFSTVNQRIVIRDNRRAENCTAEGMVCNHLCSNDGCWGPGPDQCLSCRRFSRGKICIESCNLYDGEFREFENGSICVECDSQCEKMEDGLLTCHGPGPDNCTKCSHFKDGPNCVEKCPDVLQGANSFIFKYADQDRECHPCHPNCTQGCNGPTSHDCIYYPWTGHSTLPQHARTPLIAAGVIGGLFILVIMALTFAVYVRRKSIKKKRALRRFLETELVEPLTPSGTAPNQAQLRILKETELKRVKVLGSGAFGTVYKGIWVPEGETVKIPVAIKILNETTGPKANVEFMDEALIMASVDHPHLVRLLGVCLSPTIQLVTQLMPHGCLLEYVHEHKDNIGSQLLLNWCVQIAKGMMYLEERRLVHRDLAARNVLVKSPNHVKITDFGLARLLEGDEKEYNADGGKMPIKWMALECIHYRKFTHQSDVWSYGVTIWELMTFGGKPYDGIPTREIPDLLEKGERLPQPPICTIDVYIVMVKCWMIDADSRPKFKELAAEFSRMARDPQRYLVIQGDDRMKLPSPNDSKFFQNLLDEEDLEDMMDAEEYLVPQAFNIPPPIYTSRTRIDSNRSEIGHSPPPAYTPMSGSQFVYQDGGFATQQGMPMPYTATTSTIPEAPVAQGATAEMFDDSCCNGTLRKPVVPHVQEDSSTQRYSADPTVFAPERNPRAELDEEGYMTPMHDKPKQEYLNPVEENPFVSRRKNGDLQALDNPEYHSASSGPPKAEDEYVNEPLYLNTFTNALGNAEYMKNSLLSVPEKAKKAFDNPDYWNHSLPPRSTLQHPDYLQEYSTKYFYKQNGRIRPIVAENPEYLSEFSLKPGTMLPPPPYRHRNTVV
T1 sequence (P06494 23-1257 partner): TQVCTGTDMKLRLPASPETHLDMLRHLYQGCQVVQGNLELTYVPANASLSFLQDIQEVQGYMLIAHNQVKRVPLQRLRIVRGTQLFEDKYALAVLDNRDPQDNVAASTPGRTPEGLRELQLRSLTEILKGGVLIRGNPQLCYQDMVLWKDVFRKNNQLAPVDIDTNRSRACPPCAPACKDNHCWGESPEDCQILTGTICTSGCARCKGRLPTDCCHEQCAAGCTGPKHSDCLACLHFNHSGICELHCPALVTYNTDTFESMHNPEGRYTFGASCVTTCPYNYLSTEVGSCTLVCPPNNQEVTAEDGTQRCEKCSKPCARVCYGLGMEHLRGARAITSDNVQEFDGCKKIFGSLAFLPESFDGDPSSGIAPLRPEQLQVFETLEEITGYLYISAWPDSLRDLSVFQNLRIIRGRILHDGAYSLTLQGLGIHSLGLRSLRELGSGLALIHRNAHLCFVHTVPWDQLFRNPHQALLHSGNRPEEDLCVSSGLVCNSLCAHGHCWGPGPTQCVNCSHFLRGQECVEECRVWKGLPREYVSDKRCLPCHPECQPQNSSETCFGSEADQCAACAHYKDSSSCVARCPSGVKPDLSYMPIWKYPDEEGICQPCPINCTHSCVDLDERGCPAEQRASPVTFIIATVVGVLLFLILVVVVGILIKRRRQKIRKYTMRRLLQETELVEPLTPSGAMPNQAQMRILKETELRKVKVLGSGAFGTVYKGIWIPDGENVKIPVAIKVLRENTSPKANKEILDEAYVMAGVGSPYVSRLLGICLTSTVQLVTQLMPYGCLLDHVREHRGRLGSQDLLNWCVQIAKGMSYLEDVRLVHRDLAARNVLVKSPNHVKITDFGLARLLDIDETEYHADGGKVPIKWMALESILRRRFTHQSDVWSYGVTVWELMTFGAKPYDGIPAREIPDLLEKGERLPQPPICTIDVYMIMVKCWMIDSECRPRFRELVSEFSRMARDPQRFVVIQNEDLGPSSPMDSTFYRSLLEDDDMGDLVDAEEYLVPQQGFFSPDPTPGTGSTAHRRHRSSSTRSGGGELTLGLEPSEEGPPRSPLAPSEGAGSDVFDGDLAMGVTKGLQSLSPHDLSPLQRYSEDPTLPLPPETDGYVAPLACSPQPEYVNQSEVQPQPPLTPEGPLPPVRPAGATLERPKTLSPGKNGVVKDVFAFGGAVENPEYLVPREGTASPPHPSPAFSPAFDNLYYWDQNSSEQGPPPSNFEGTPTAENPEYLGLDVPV
T2 sequence (Q62799 20-1339): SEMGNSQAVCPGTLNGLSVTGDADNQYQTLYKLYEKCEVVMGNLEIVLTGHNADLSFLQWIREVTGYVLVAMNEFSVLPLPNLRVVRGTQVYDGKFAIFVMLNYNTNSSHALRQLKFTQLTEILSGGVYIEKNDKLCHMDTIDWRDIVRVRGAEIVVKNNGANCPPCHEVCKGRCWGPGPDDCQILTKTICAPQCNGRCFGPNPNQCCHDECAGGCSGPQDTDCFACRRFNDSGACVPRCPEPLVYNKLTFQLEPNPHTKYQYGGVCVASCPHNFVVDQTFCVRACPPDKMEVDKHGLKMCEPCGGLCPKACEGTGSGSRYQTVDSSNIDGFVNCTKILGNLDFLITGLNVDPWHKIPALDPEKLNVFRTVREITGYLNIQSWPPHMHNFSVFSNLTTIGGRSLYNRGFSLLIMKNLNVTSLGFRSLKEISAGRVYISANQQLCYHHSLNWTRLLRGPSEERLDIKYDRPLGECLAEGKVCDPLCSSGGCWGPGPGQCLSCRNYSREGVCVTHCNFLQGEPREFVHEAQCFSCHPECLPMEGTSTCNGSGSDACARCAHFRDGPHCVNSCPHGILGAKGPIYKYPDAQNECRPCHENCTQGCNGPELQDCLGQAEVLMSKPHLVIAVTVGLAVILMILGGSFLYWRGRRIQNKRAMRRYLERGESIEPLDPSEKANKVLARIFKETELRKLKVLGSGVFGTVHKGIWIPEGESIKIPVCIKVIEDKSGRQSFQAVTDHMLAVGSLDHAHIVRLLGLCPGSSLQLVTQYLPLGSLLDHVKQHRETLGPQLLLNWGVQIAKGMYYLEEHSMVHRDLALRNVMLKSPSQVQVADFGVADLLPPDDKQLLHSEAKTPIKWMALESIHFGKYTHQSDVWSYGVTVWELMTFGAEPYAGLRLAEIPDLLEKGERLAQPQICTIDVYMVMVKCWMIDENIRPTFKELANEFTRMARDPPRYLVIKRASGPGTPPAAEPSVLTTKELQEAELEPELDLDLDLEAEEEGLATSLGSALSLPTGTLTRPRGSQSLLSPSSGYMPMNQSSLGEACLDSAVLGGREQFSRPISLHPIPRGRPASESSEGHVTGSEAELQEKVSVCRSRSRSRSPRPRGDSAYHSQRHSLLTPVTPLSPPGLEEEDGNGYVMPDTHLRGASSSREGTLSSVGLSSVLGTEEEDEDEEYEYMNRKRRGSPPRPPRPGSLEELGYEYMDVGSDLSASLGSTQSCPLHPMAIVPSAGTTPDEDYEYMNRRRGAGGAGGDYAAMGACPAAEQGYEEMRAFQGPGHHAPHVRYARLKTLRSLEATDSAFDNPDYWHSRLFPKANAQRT
T2 sequence (P06494 23-1257 partner): as the sequence (P06494 23-1257 partner) above

| Molecule | EC50 (ErbB4) [nM] | Selectivity SC/CM (ErbB4) | CM % Agonism AVG (ErbB4) [%] | EC50 (ErbB3) [nM] | Schwann cells (SC) (ErbB3) Avg EC50 (M) (ErbB3) |
| --- | --- | --- | --- | --- | --- |
| B1 | 0.587 | 6.165 | 97.51 | 3.62 |  |
| B2 | 6.4 | >10000 | 62.7 |  | inactive |
| B3 | 4.3 | >10000 | 72.3 |  | inactive |
| B4 | 0.695 | >10000 | 85.89 | 10000 |  |
| B5 | 0.224 | >10000 | 97.95 | 10000 |  |
| B6 | 0.557 | >10000 | 96.05 | 10000 |  |
| B7 | 0.39 | >10000 | 90.65 | 10000 |  |
| B8 | 0.33 | >10000 | 99.83 | 10000 |  |
| B9 | 0.311 | 55.4019 | 91.65 | 17.2 |  |
| B10 | 0.58 | >10000 | 87.47 | 10000 |  |
